Paper PMC12395675

B1: spike (S) protein: N514Q (protein)
parent chain: MKSLTYFWLFLPVLSTLSLPQDVTRCSANTNFRRFFSKFNVQAPAVVVLGGYLPIGENQGVNSTWYCAGQHPTASGVHGIFVSHIRGGHGFEIGISQEPFDPSGYQLYLHKATNGNTNATARLRICQFPSIKTLGPTANNDVTTGRNCLFNKAIPAHMSEHSVVGITWDNDRVTVFSDKIYYFYFKNDWSRVATKCYNSGGCAMQYVYEPTYYMLNVTSAGEDGISYQPCTANCIGYAANVFATEPNGHIPEGFSFNNWFLLSNDSTLVHGKVVSNQPLLVNCLLAIPKIYGLGQFFSFNQTIDGVCNGAAVQRAPEALRFNINDTSVILAEGSIVLHTALGTNFSFVCSNSSDPHLATFATPLGATQVPYYCFLKVDTYNSTVYKFLAILPPTVREIVITKYGDFYVNGFGYLHLGLLDAVTINFTGHGTDDDVSGFWTIASTNFVDALIEVQGTAIQRILYCDDPVSQLKCSQVSFDLDDGFYPISSRNLLSHEQPISFVTLPSFNDHSFVNITVSASFGGHSGANLIASDTTINGFSSFCVETRQFTISLFYNVTNSYGYVSKSQDSNCPFTLQSVNDYLSFSKFCVSTSLLASACTIDLFGYPEFGSGVKFTSLYFQFTKGELITGTPKPLVGVTDVSFMTLDVCTKYTIYGFKGEGIITLTNSSFLAGIYYTSDSGQLLAFKNVTSGAVYSVTPCSFSEQAAYVDDDIVGVISSLSNSTFNSTRELPGFFYHSNDGSNCTEPVLVYSNIGVCKSGSIGYVLSKSGQVKIAPTVTGNISIPTNFSMSIRTEYLQLYNTPVSVDCATYVCNGNSRCKQLLTQYIAACKTIESALQLSARLESAEVNSMLTISEEALQLATISSFNGDGYNFTNVLGVSVRDPASGRVVQKRSFIEDLLFNKVVTNGLGTVDEDYKRCSNGRSVADLVCAQYYSGVMVLPGVVDAEKLHMYSASLIGGMVLGGFTAAAALPFSYAVQARLNYLALQTDVLQRNQQLLAESFNSAIGDITSAFESVKEAISQTSKGLNTVAHALTKVQEVVNSQGAALTQLTVQLQHNFQAISSSIDDIYSRLDILSADVQVDRLITGRLSALNAFVAQTLTKYTEVQASRKLAQQKVNECVKSQSQRYGFCGGDGEHIFSLVQAAPQGLLFLHTVLVPGDFVDVIAIAGLCVNDEIALTLREPGLVLFTHELQNHTATEYFVSSRRMFEPRKPTVSDFVQIESCVVTYVNLTRDQLPDVIPDYIDVNKTLYEILASLPNRTGPSLPLDVFNATYLNLTGEIADLEQRSESLRNTTEELQSLIYNINNTLVDLEWLNRVETYIKWPWWVWLIIFIVLIFVVSLLVFCCISTGCCGCCGCCGACFAGCCRGPRLQPYEAFEKVHVQ
B2: spike (S) protein: N556Q (protein)
parent chain: MKSLTYFWLFLPVLSTLSLPQDVTRCSANTNFRRFFSKFNVQAPAVVVLGGYLPIGENQGVNSTWYCAGQHPTASGVHGIFVSHIRGGHGFEIGISQEPFDPSGYQLYLHKATNGNTNATARLRICQFPSIKTLGPTANNDVTTGRNCLFNKAIPAHMSEHSVVGITWDNDRVTVFSDKIYYFYFKNDWSRVATKCYNSGGCAMQYVYEPTYYMLNVTSAGEDGISYQPCTANCIGYAANVFATEPNGHIPEGFSFNNWFLLSNDSTLVHGKVVSNQPLLVNCLLAIPKIYGLGQFFSFNQTIDGVCNGAAVQRAPEALRFNINDTSVILAEGSIVLHTALGTNFSFVCSNSSDPHLATFATPLGATQVPYYCFLKVDTYNSTVYKFLAILPPTVREIVITKYGDFYVNGFGYLHLGLLDAVTINFTGHGTDDDVSGFWTIASTNFVDALIEVQGTAIQRILYCDDPVSQLKCSQVSFDLDDGFYPISSRNLLSHEQPISFVTLPSFNDHSFVNITVSASFGGHSGANLIASDTTINGFSSFCVETRQFTISLFYNVTNSYGYVSKSQDSNCPFTLQSVNDYLSFSKFCVSTSLLASACTIDLFGYPEFGSGVKFTSLYFQFTKGELITGTPKPLVGVTDVSFMTLDVCTKYTIYGFKGEGIITLTNSSFLAGIYYTSDSGQLLAFKNVTSGAVYSVTPCSFSEQAAYVDDDIVGVISSLSNSTFNSTRELPGFFYHSNDGSNCTEPVLVYSNIGVCKSGSIGYVLSKSGQVKIAPTVTGNISIPTNFSMSIRTEYLQLYNTPVSVDCATYVCNGNSRCKQLLTQYIAACKTIESALQLSARLESAEVNSMLTISEEALQLATISSFNGDGYNFTNVLGVSVRDPASGRVVQKRSFIEDLLFNKVVTNGLGTVDEDYKRCSNGRSVADLVCAQYYSGVMVLPGVVDAEKLHMYSASLIGGMVLGGFTAAAALPFSYAVQARLNYLALQTDVLQRNQQLLAESFNSAIGDITSAFESVKEAISQTSKGLNTVAHALTKVQEVVNSQGAALTQLTVQLQHNFQAISSSIDDIYSRLDILSADVQVDRLITGRLSALNAFVAQTLTKYTEVQASRKLAQQKVNECVKSQSQRYGFCGGDGEHIFSLVQAAPQGLLFLHTVLVPGDFVDVIAIAGLCVNDEIALTLREPGLVLFTHELQNHTATEYFVSSRRMFEPRKPTVSDFVQIESCVVTYVNLTRDQLPDVIPDYIDVNKTLYEILASLPNRTGPSLPLDVFNATYLNLTGEIADLEQRSESLRNTTEELQSLIYNINNTLVDLEWLNRVETYIKWPWWVWLIIFIVLIFVVSLLVFCCISTGCCGCCGCCGACFAGCCRGPRLQPYEAFEKVHVQ
B3: spike (S) protein: N873Q (protein)
parent chain: MKSLTYFWLFLPVLSTLSLPQDVTRCSANTNFRRFFSKFNVQAPAVVVLGGYLPIGENQGVNSTWYCAGQHPTASGVHGIFVSHIRGGHGFEIGISQEPFDPSGYQLYLHKATNGNTNATARLRICQFPSIKTLGPTANNDVTTGRNCLFNKAIPAHMSEHSVVGITWDNDRVTVFSDKIYYFYFKNDWSRVATKCYNSGGCAMQYVYEPTYYMLNVTSAGEDGISYQPCTANCIGYAANVFATEPNGHIPEGFSFNNWFLLSNDSTLVHGKVVSNQPLLVNCLLAIPKIYGLGQFFSFNQTIDGVCNGAAVQRAPEALRFNINDTSVILAEGSIVLHTALGTNFSFVCSNSSDPHLATFATPLGATQVPYYCFLKVDTYNSTVYKFLAILPPTVREIVITKYGDFYVNGFGYLHLGLLDAVTINFTGHGTDDDVSGFWTIASTNFVDALIEVQGTAIQRILYCDDPVSQLKCSQVSFDLDDGFYPISSRNLLSHEQPISFVTLPSFNDHSFVNITVSASFGGHSGANLIASDTTINGFSSFCVETRQFTISLFYNVTNSYGYVSKSQDSNCPFTLQSVNDYLSFSKFCVSTSLLASACTIDLFGYPEFGSGVKFTSLYFQFTKGELITGTPKPLVGVTDVSFMTLDVCTKYTIYGFKGEGIITLTNSSFLAGIYYTSDSGQLLAFKNVTSGAVYSVTPCSFSEQAAYVDDDIVGVISSLSNSTFNSTRELPGFFYHSNDGSNCTEPVLVYSNIGVCKSGSIGYVLSKSGQVKIAPTVTGNISIPTNFSMSIRTEYLQLYNTPVSVDCATYVCNGNSRCKQLLTQYIAACKTIESALQLSARLESAEVNSMLTISEEALQLATISSFNGDGYNFTNVLGVSVRDPASGRVVQKRSFIEDLLFNKVVTNGLGTVDEDYKRCSNGRSVADLVCAQYYSGVMVLPGVVDAEKLHMYSASLIGGMVLGGFTAAAALPFSYAVQARLNYLALQTDVLQRNQQLLAESFNSAIGDITSAFESVKEAISQTSKGLNTVAHALTKVQEVVNSQGAALTQLTVQLQHNFQAISSSIDDIYSRLDILSADVQVDRLITGRLSALNAFVAQTLTKYTEVQASRKLAQQKVNECVKSQSQRYGFCGGDGEHIFSLVQAAPQGLLFLHTVLVPGDFVDVIAIAGLCVNDEIALTLREPGLVLFTHELQNHTATEYFVSSRRMFEPRKPTVSDFVQIESCVVTYVNLTRDQLPDVIPDYIDVNKTLYEILASLPNRTGPSLPLDVFNATYLNLTGEIADLEQRSESLRNTTEELQSLIYNINNTLVDLEWLNRVETYIKWPWWVWLIIFIVLIFVVSLLVFCCISTGCCGCCGCCGACFAGCCRGPRLQPYEAFEKVHVQ
B4: spike (S) protein: N425Q (protein)
parent chain: MKSLTYFWLFLPVLSTLSLPQDVTRCSANTNFRRFFSKFNVQAPAVVVLGGYLPIGENQGVNSTWYCAGQHPTASGVHGIFVSHIRGGHGFEIGISQEPFDPSGYQLYLHKATNGNTNATARLRICQFPSIKTLGPTANNDVTTGRNCLFNKAIPAHMSEHSVVGITWDNDRVTVFSDKIYYFYFKNDWSRVATKCYNSGGCAMQYVYEPTYYMLNVTSAGEDGISYQPCTANCIGYAANVFATEPNGHIPEGFSFNNWFLLSNDSTLVHGKVVSNQPLLVNCLLAIPKIYGLGQFFSFNQTIDGVCNGAAVQRAPEALRFNINDTSVILAEGSIVLHTALGTNFSFVCSNSSDPHLATFATPLGATQVPYYCFLKVDTYNSTVYKFLAILPPTVREIVITKYGDFYVNGFGYLHLGLLDAVTINFTGHGTDDDVSGFWTIASTNFVDALIEVQGTAIQRILYCDDPVSQLKCSQVSFDLDDGFYPISSRNLLSHEQPISFVTLPSFNDHSFVNITVSASFGGHSGANLIASDTTINGFSSFCVETRQFTISLFYNVTNSYGYVSKSQDSNCPFTLQSVNDYLSFSKFCVSTSLLASACTIDLFGYPEFGSGVKFTSLYFQFTKGELITGTPKPLVGVTDVSFMTLDVCTKYTIYGFKGEGIITLTNSSFLAGIYYTSDSGQLLAFKNVTSGAVYSVTPCSFSEQAAYVDDDIVGVISSLSNSTFNSTRELPGFFYHSNDGSNCTEPVLVYSNIGVCKSGSIGYVLSKSGQVKIAPTVTGNISIPTNFSMSIRTEYLQLYNTPVSVDCATYVCNGNSRCKQLLTQYIAACKTIESALQLSARLESAEVNSMLTISEEALQLATISSFNGDGYNFTNVLGVSVRDPASGRVVQKRSFIEDLLFNKVVTNGLGTVDEDYKRCSNGRSVADLVCAQYYSGVMVLPGVVDAEKLHMYSASLIGGMVLGGFTAAAALPFSYAVQARLNYLALQTDVLQRNQQLLAESFNSAIGDITSAFESVKEAISQTSKGLNTVAHALTKVQEVVNSQGAALTQLTVQLQHNFQAISSSIDDIYSRLDILSADVQVDRLITGRLSALNAFVAQTLTKYTEVQASRKLAQQKVNECVKSQSQRYGFCGGDGEHIFSLVQAAPQGLLFLHTVLVPGDFVDVIAIAGLCVNDEIALTLREPGLVLFTHELQNHTATEYFVSSRRMFEPRKPTVSDFVQIESCVVTYVNLTRDQLPDVIPDYIDVNKTLYEILASLPNRTGPSLPLDVFNATYLNLTGEIADLEQRSESLRNTTEELQSLIYNINNTLVDLEWLNRVETYIKWPWWVWLIIFIVLIFVVSLLVFCCISTGCCGCCGCCGACFAGCCRGPRLQPYEAFEKVHVQ

Tests used:
[1] = viral titre at 24 hpi, MOI 0.01; conditions: glycan lost; control: rPEDV-WT
[2] = BAC transfection of Vero cells; CPE, western blot; conditions: glycan lost; control: rPEDV-WT

| Protein | other: viral replication [1] | other: virus rescue (viability), other: viruses recovered/attempts [2] |
| --- | --- | --- |
| B1 | no change | no change |
| B2 | no change | no change |
| B3 | – | abolishes |
| B4 | – | abolishes |
